According to patent publication US8420776B2, “Ube2G2 binding domain in the ubiquitin ligase gp78 and methods of use thereof” (The United States of America, as Represented by the …, priority 2004, dated 2013):

T1: Myc-Ube2G2 (Mus musculus, UniProt P60605)
T1 construct: expressed in transfected cells; host or cells: HEK 293T
T1 sequence (P60605 1-165): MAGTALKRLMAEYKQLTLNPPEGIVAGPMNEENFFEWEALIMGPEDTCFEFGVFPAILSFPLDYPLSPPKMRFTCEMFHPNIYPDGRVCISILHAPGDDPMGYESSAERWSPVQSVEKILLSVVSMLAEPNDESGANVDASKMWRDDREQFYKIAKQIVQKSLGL


Tests used:
Format in all cases: cell-based
[1] = tested on: gp78; experiment: gp78 level in transfected cells by immunoblotting; settings: full-length gp78 forms; immunoblot
Protocol: (§1) Transfections of HT1080, NIH 3T3 and HEK 293T cells were carried out ˜24 hr after plating using Polyfect (Qiagen, Valencia, Calif.) and cells harvested after ˜48 hr. J558 cells were transfected by electroporation using Bio-rad GENE pulser II at settings of 250 v, 950uF. Vector without insert was used to equalize total plasmid. In most experiments 0.15 μg of pEGFP-C1 served as an internal control. For experiments not involving immunoprecipitation, 6×10^5 cells were plated in 6 well plates and cell lysis was with Mammalian Protein Extraction Reagent (Pierce). For immunoprecipitation, 2.4×10^6 cells were seeded in 100 mm dishes and cells were lysed in RIPA buffer (1×PBS, 1% Nonidet P40. 0.5% sodium deoxycholate, 0.1% SDS). Lysis buffers were supplemented with Protease Inhibitor Cocktail (Sigma) and 10 mM iodoacetamide. Supernatants were analyzed after a 10,000×g centrifugation using standard techniques for immunoprecipitation, SDS-PAGE, immunoblotting and ECL. Treatment of cells with MG132 (Sigma) was at 50 μM for eight hr. Cycloheximnide was used at 50 μg/ml. […]
(§2) gp78 is degraded in a proteasome-dependent manner, and deletion of the entire cytoplasmic domain results in its stabilization. […] To determine the significance of the RING finger, Cue domain and Ube2G2 binding site on gp78 stability, mutations of each were evaluated within full-length gp78. […]

[2] = biological target: T1, Myc-Ube2G2; experiment: Co-immunoprecipitation with co-expressed Myc-Ube2G2 in cells; settings: anti-Myc IP, anti-gp78 IB; MG132 8 hr
Protocol: (§3) Transfections of HT1080, NIH 3T3 and HEK 293T cells were carried out ˜24 hr after plating using Polyfect (Qiagen, Valencia, Calif.) and cells harvested after ˜48 hr. J558 cells were transfected by electroporation using Bio-rad GENE pulser II at settings of 250 v, 950uF. Vector without insert was used to equalize total plasmid. In most experiments 0.15 μg of pEGFP-C1 served as an internal control. For experiments not involving immunoprecipitation, 6×10^5 cells were plated in 6 well plates and cell lysis was with Mammalian Protein Extraction Reagent (Pierce). For immunoprecipitation, 2.4×10^6 cells were seeded in 100 mm dishes and cells were lysed in RIPA buffer (1×PBS, 1% Nonidet P40. 0.5% sodium deoxycholate, 0.1% SDS). Lysis buffers were supplemented with Protease Inhibitor Cocktail (Sigma) and 10 mM iodoacetamide. Supernatants were analyzed after a 10,000×g centrifugation using standard techniques for immunoprecipitation, SDS-PAGE, immunoblotting and ECL. Treatment of cells with MG132 (Sigma) was at 50 μM for eight hr. Cycloheximnide was used at 50 μg/ml. All cells were collected at the end of the six hr chase.
FIG. 5 depicts the results of immunoprecipitation of Ube2G2 (MmUbc7) from HEK 293T cells co-transfected with a plasmid encoding myc-tagged MmUbc7/Ube2G2 together with s plasmid encoding various forms of gp78. HEK 293T cells were transfected with a plasmid encoding myc-tagged MmUbc7/Ube2G2 together with plasmids encoding various forms of gp78. After 48 hours, cells were harvested and co-immuntoprecipitated with an anti-Myc tage. Anti-gp78 was used for detection. “R2M” indicates a mutation of two crucial residues in the RING finger. “T” indicates C terminal truncations at the indicated amino acids. ΔB is the mutation indicated above in FIG. 4 in the context of the full length gp78 and “Cue12M” indicates mutations in the Cue domain of gp78.
To confirm the significance of the Ube2G2 binding site in cells, a variety of mutations and truncations of full-length gp78 were tested for binding of co-expressed Myc-Ube2G2 (FIG. 19A). Cells were treated with the proteasome inhibitor MG132 in an attempt to equalize levels of the various forms of gp78.

[3] = tested on: ERAD substrate CD3-δ; experiment: CD3-δ level in co-transfected cells by immunoblotting; settings: co-transfection with CD3-δ; immunoblot
Protocol: as §3
FIG. 7 depicts the stabilization of CD3-δ protein in cells transfected with the G2BD, but not with the G2BD with amino acids 579-584 (of SEQ ID NO:2) mutated. HEK 293T cells were transfected with the ERAD substrate CD3-δ along with the indicated GFP fusions of gp78. The left and right sides are two separate experiments.
To test this, GFP fusions of either a minimal E2 binding domain (GFP-574-611) or a more extended region that includes the C-terminus of gp78 (GFP-574-643) were evaluated (FIG. 21A). […] To assess this further, the C-terminal region of gp78 was fused to the eight amino acid Flag tag. […] Mdm2 is a RING finger E3 for both itself and p53 that is neither an ERAD substrate nor known to utilize Ube2G2 as an E2. […] To establish with certainty that the effect observed with expression of the Ube2G2 binding site is a consequence of binding endogenous E2, and not due to other unanticipated effects, cells were co-transfected with increasing amounts of Ube2G2 (FIG. 21C, lanes 3 and 4). […] These findings clearly establish that the isolated E2 binding site has the potential to markedly alter ERAD of CD3-δ. To ensure the effect observed was not peculiar to one substrate, TCR-α was evaluated (FIG. 21D).

[4] = tested on: gp78; experiment: gp78 ubiquitylation in transfected cells (IP anti-gp78, IB anti-ubiquitin); settings: 50 μM MG132 eight hours
Protocol: FIGS. 20A-20E depict the requirement of multiple domains of gp78 to target itself and a heterologous ERAD substrate. (FIG. 20A) Cells were co-transfected with the indicated forms of full length gp78 together with CD3-δ and lysates analyzed by IB. (B) Cells were transfected with wild type and mutant gp78 plasmids as indicated. Samples were treated with 50 μM MG132 for eight hours, lysates IP'ed with anti-gp78 followed by […] with either antiubiquitin (upper) or anti-gp78 (lower). Arrow in upper panel indicates migration of unmodified gp78. (FIGS. 20C and 20D) Cells were co-transfected with HA-CD3-δ and wild type (WT) or mutant forms of gp78. Cells were treated with cycloheximide (CHX) as indicated. (FIG. 20E) Graphic representation of CD3-δ levels from FIGS. 20C and 20D (fall length gp78 transfections only), Cue-m1, 2 is the average of data shown in FIGS. 20C and 20D.
as §1, with “Lysis buffers were supplemented with Protease Inhibitor Cocktail (Sigma) and 10 mM iodoacetamide.” left out, “ECL.” for “ECL. Treatment of cells with MG132 (Sigma) was at 50 μM for eight hr. Cycloheximnide was used at 50 μg/ml.”
as §2

Molecule	gp78 level compared to wild type [1]	E2 association of full-length gp78 forms with co-expressed Myc-Ube2G2 [2]	effect on CD3-δ level (stabilization) [3]	gp78 ubiquitylation (ubiquitin immunoreactivity) [4]
gp78E2-m2: full-length gp78 with residues 579-584 mutated (label E2-m2 in b279) (protein) MPLLFLERFPWPSLRTYTGLSGLALLGTIISAYRALSQPEAGPGEPDQLTASLQPEPPAPARPSAGGPRARDVAQYLLSDSLFVWVLVNTACCVLMLVAKLIQCIVFGPLRVSERQHLKDKFWNFIFYKFIFIFGVLNVQTVEEVVMWCLWFAGLVFLHLMVQLCKDRFEYLSFSPTTPMSSHGRVLSLLVAMLLSCCGLAAVCSITGYTHGMHTLAFMAAESLLVTVRTAHVILRYVIHLWDLNHEGTWEGKGTYVYYTDFVMELTLLSLDLMHHIHMLLFGNIWLSMASLVIFMQLRYLFHEVQRRIRRHKNYLRVVGNMEARFAVATPEELAVNNDDCAICWDSMQAARKLPCGHLFHNSCLRSWLEQDTSCPTCRMSLNIADNNRVREEHQGENLDENLVPVAAAEGRPRLNQHNHFFHFDGSRIASWLPSFSVEVMHTTNILGITQASNSQLNAMAHQIQEMFPQVPYHLVLQDLQLTRSVEITTDNILEGRIQVPFPTQRSDSIRPALNSPVERPSSDQEEGETSAQTERVPLDLSPRLEETLDFGEVEVEPSEVEDFEARGSRFSKSADERAAAGGGRKDELLQQARKRFLNKSSEDDAASESFLPLEGASSDPVTLRRRMLAAAAERRLQKQQTS	increased gp78	loss of E2 binding	neither significantly stabilized CD3-δ nor enhanced its loss	dramatic decrease in ubiquitin immunoreactivity
gp78Cue-m1, 2: full-length gp78 with mutations in the Cue domain (label Cue-m1, 2 in b279) (protein) MPLLFLERFPWPSLRTYTGLSGLALLGTIISAYRALSQPEAGPGEPDQLTASLQPEPPAPARPSAGGPRARDVAQYLLSDSLFVWVLVNTACCVLMLVAKLIQCIVFGPLRVSERQHLKDKFWNFIFYKFIFIFGVLNVQTVEEVVMWCLWFAGLVFLHLMVQLCKDRFEYLSFSPTTPMSSHGRVLSLLVAMLLSCCGLAAVCSITGYTHGMHTLAFMAAESLLVTVRTAHVILRYVIHLWDLNHEGTWEGKGTYVYYTDFVMELTLLSLDLMHHIHMLLFGNIWLSMASLVIFMQLRYLFHEVQRRIRRHKNYLRVVGNMEARFAVATPEELAVNNDDCAICWDSMQAARKLPCGHLFHNSCLRSWLEQDTSCPTCRMSLNIADNNRVREEHQGENLDENLVPVAAAEGRPRLNQHNHFFHFDGSRIASWLPSFSVEVMHTTNILGITQASNSQLNAMAHQIQEGGRQVPYHLRLQVDQLTRSVEITTDNILEGRIQVPFPTQRSDSIRPALNSPVERPSSDQEEGETSAQTERVPLDLSPRLEETLDFGEVEVEPSEVEDFEARGSRFSKSADERQRMLVQRKDELLQQARKRFLNKSSEDDAASESFLPLEGASSDPVTLRRRMLAAAAERRLQKQQTS	increased gp78	–	marked increase in CD3-δ	dramatic decrease in ubiquitin immunoreactivity
